In PMC8363014, “OsMADS23 phosphorylated by SAPK9 confers drought and salt tolerance by regulating ABA biosynthesis in rice”:

B1: OsNCED2-c (probe 3) (dsDNA)
DNA 1: GGGGCTAATAATTAGCCTTCCAAAATTTTGCTATTTATAAGTA
DNA 2: TACTTATAAATAGCAAAATTTTGGAAGGCTAATTATTAGCCCC
modifications: 3' biotin
B2: OsNCED2-b (probe 2) (dsDNA)
DNA 1: GGGGTTGTCTATGTAACATATAATTGGATATATATTCATTCC
DNA 2: GGAATGAATATATATCCAATTATATGTTACATAGACAACCCC
modifications: 3' biotin
B3: OsNCED2-a (probe 1) (dsDNA)
DNA 1: AACATTCTATCCCATAAAATTGTGTTTTGTTGCAAATGTCC
DNA 2: GGACATTTGCAACAAAACACAATTTTATGGGATAGAATGTT
modifications: 3' biotin

Molecular target: OsMADS23 (Oryza sativa (rice), UniProt Q6VAM4 1-159)
Test: EMSA; signal reduced by excess unlabeled probe; LightShift Chemiluminescent EMSA kit (Thermo), manufacturer's instructions; buffer, salt, pH and temperature not stated
Conditions: protein: recombinant; tags: His, trigger factor (pCold-TF); chain copies: 2; label: biotin; blunt

Sequence of OsMADS23 (Q6VAM4 whole entry): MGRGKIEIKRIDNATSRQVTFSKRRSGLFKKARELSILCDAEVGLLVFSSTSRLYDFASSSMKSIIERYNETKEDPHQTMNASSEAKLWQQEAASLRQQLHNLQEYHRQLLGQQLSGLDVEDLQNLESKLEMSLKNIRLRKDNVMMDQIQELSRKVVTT

Row | Binder | binding result
1 | B1 | binds
2 | B2 | binds
3 | B3 | binds
